By Kd is commonly meant the concentration at which binding is half-saturated.

The source of these data is publication PMC9751120 (2022).

Common to all, as to experiment: FP
Experiment [1] has as its target T1, purified full-length ΔNp63α (human, UniProt Q9H3D4-2 1-586).
T1 chain: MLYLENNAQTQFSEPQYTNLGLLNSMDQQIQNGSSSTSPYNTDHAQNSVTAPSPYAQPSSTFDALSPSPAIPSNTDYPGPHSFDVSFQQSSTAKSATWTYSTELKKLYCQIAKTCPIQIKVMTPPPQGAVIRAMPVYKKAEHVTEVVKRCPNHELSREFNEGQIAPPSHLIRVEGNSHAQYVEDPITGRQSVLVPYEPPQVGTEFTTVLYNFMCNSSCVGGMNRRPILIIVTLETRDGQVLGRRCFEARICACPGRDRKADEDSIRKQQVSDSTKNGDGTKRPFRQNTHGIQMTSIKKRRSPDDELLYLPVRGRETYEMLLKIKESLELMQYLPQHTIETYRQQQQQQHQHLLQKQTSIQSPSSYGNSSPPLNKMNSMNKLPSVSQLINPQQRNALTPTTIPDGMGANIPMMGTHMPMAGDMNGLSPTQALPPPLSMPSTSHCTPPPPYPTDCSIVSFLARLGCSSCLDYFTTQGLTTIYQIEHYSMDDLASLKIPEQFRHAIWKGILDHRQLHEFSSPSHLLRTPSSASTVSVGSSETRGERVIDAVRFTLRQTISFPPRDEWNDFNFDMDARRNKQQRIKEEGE

The target of experiment [2] is T2, purified full-length TAp63α (human).
T2 chain: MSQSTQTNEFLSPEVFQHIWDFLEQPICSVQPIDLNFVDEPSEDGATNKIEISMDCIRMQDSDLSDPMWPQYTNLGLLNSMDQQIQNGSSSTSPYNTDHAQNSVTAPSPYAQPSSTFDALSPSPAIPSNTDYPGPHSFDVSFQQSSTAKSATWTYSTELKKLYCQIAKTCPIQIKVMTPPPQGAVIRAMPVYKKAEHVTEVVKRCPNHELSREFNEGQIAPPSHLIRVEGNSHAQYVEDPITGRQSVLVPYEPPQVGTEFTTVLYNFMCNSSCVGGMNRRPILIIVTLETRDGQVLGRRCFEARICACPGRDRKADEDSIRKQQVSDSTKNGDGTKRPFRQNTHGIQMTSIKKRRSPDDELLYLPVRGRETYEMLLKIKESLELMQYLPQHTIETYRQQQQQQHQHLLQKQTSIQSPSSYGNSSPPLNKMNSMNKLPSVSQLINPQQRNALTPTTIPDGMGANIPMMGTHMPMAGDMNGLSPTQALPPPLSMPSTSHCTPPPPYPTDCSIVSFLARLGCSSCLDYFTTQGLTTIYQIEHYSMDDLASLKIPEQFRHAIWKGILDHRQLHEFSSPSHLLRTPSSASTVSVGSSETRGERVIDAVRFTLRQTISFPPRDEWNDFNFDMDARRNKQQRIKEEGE

In experiment [3] the target is T1, purified full-length ΔNp63α.
The target of experiment [4] is T2, purified full-length TAp63α.
The target in experiment [5] is T1, purified full-length ΔNp63α.
For experiment [6], the target named is T2, purified full-length TAp63α.

Where two headings read alike, the source gives them in different places.

B1: DARPin A5, Alexa 488 labeled (designed binder)
chain: GSDLGKKLLEAARAGQDDEVRILMANGADVNAQDQYGWTPLHLAAARGHLEIVEVLLKTGADVNAVDKHGNTPLPLAASVGHLEIVEVLLKAGADVNAQDQFGRTPLHLAAMWGHLEIVEVLLKHGADVNAQDKFGKTAFDISIDNGNEDIVEVLQKAAGGC
modifications: Alexa Fluor 488 C5 maleimide on the introduced C-terminal cysteine
B1: the Kd worked out at 67.9 nM in experiment [1] and 296 nM in experiment [2].

B2: DARPin 8F1, Alexa 488 labeled (designed binder)
chain: GSDLGKKLLEAARAGQDDEVRILMANGADVNAADWLGYTPLHLAAWYGHLEIVEVLLKTGADVNARDAYGITPLHLAAYYGHLEIVEVLLKHGADVNAQDKFGKTPFDLAIDNGNEDIAEVLQKAAGGC
modifications: Alexa Fluor 488 C5 maleimide on the introduced C-terminal cysteine
In the case of B2, the dissociation constant Kd came to 95.6 nM in experiment [3] and 6160 nM in experiment [4].

B3: DARPin C14, Alexa 488 labeled (designed binder)
chain: GSDLGKKLLEAAQIGQLDEVRILMANGADVNASDTDGLTPLHLAAASGHLEIVEVLLKTGADVNATDKWGDTPLHLAASQGHLEIVEVLLKAGADVNATDFTGNTPLHLAAYIGHLEIVEVLLKHGADVNAQDKFGKTPFDLAIDNGNEDIAEVLQKAAGGC
modifications: Alexa Fluor 488 C5 maleimide on the introduced C-terminal cysteine
For the molecule B3, the equilibrium dissociation constant (Kd) in experiment [5] amounted to 202 nM; in experiment [6], 734 nM.
